Measurements reported in patent publication US20200131224A1, “Methods for Synthesis of Radionuclide Complex” (Advanced Accelerator Applications (Italy) S.R.L., priority 2018, published 2020).

Assay: Radiochemical purity (RCP) of the Drug Substance 72 hours from end of synthesis
Type: physicochemical
Settings: radiochemical purity 72 hours from end of synthesis; reaction time 5 min; reactor temperature 80 or 100 °C by batch
Description: The reaction temperature has been tested between 80° C. and 100° C. for labeling times of 5 minutes.

Row | Structure (SMILES) | RCP (%) t72 h [%]
1 | C[C@@H](O)[C@H](NC(=O)[C@@H]1CSSC[C@H](NC(=O)[C@@H](Cc2ccccc2)NC(=O)CN2CCN(CC(=O)[O-])CCN(CC(=O)[O-])CCN(CC(=O)[O-])CC2)C(=O)N[C@@H](Cc2ccc(O)cc2)C(=O)N[C@H](Cc2c[nH]c3ccccc23)C(=O)N[C@@H](CCCCN)C(=O)N[C@@H]([C@@H](C)O)C(=O)N1)C(=O)O.[177Lu+3] [LT141013B-03, ^177Lu-DOTA0-Tyr^3-Octreotate] | 95.9
2 | C[C@@H](O)[C@H](NC(=O)[C@@H]1CSSC[C@H](NC(=O)[C@@H](Cc2ccccc2)NC(=O)CN2CCN(CC(=O)[O-])CCN(CC(=O)[O-])CCN(CC(=O)[O-])CC2)C(=O)N[C@@H](Cc2ccc(O)cc2)C(=O)N[C@H](Cc2c[nH]c3ccccc23)C(=O)N[C@@H](CCCCN)C(=O)N[C@@H]([C@@H](C)O)C(=O)N1)C(=O)O.[177Lu+3] [LT141013C-03, ^177Lu-DOTA0-Tyr^3-Octreotate] | 95.8
